Test results: the RNAGym collection of RNA variant scans (doi:10.1021/acssynbio.7b00057)

B1: Pistol ribozyme (parent)
chain: GGGUCGUUGUUCCAUAAUCGCGUGGAUAUGGCACGCAAGUUUCUACCGGGCACCGUAAAUGUCCGACUGGAGCCGUUCGGGCGGCUAUAAACAGACCUCAGGCCCGAAGCGUGGCGGCACCUGCCGCCGGUGGUAAAAAAGAUCGGAAGAGCACACGUCU

Variants of: B1
Assay: aptazyme ON/OFF ratio, guanine; higher = stronger switching; co-transcriptional cleavage with and without guanine

| Variant | aptazyme ON/OFF ratio |
| --- | --- |
| GGGUCGUCGCCCUAUAAUCGCGUGGAUAUGGCACGCAAGUUUCUACCGGGCACCGUAAAUGUCCGACUGGAGCCGUUCGGGCGGCUAUAAACAGACCUCAGGCCCGAAGCGUGGCGGCACCUGCCGCCGGUGGUAAAAAAGAUCGGAAGAGCACACGUCU [U8C U10C U11C C13U] | 1.08 |
| GGGUCGUCGCCCGAUAAUCGCGUGGAUAUGGCACGCAAGUUUCUACCGGGCACCGUAAAUGUCCGACUGGAGCCGUUCGGGCGGCUAUAAACAGACCUCAGGCCCGAAGCGUGGCGGCACCUGCCGCCGGUGGUAAAAAAGAUCGGAAGAGCACACGUCU [U8C U10C U11C C13G] | 1.19 |
| GGGUCGUCGCGGCAUAAUCGCGUGGAUAUGGCACGCAAGUUUCUACCGGGCACCGUAAAUGUCCGACUGGAGCCGUUCGGGCGGCUAUAAACAGACCUCAGGCCCGAAGCGUGGCGGCACCUGCCGCCGGUGGUAAAAAAGAUCGGAAGAGCACACGUCU [U8C U10C U11G C12G] | 1.25 |
| GGGUCGUCGCGUCAUAAUCGCGUGGAUAUGGCACGCAAGUUUCUACCGGGCACCGUAAAUGUCCGACUGGAGCCGUUCGGGCGGCUAUAAACAGACCUCAGGCCCGAAGCGUGGCGGCACCUGCCGCCGGUGGUAAAAAAGAUCGGAAGAGCACACGUCU [U8C U10C U11G C12U] | 1.39 |
| GGGUCGUCGCGACAUAAUCGCGUGGAUAUGGCACGCAAGUUUCUACCGGGCACCGUAAAUGUCCGACUGGAGCCGUUCGGGCGGCUAUAAACAGACCUCAGGCCCGAAGCGUGGCGGCACCUGCCGCCGGUGGUAAAAAAGAUCGGAAGAGCACACGUCU [U8C U10C U11G C12A] | 1.15 |
| GGGUCGUCGGUCCAUAAUCGCGUGGAUAUGGCACGCAAGUUUCUACCGGGCACCGUAAAUGUCCGACUGGAGCCGUUCGGGCGGCUAUAAACAGACCUCAGGCCCGAAGCGUGGCGGCACCUGCCGCCGGUGGUAAAAAAGAUCGGAAGAGCACACGUCU [U8C U10G] | 1.76 |
| GGGUCGUCGCGCCAUAAUCGCGUGGAUAUGGCACGCAAGUUUCUACCGGGCACCGUAAAUGUCCGACUGGAGCCGUUCGGGCGGCUAUAAACAGACCUCAGGCCCGAAGCGUGGCGGCACCUGCCGCCGGUGGUAAAAAAGAUCGGAAGAGCACACGUCU [U8C U10C U11G] | 1.42 |
| GGGUCGUCGCGUAAUAAUCGCGUGGAUAUGGCACGCAAGUUUCUACCGGGCACCGUAAAUGUCCGACUGGAGCCGUUCGGGCGGCUAUAAACAGACCUCAGGCCCGAAGCGUGGCGGCACCUGCCGCCGGUGGUAAAAAAGAUCGGAAGAGCACACGUCU [U8C U10C U11G C12U C13A] | 1.26 |
| GGGUCGUCGCGUGAUAAUCGCGUGGAUAUGGCACGCAAGUUUCUACCGGGCACCGUAAAUGUCCGACUGGAGCCGUUCGGGCGGCUAUAAACAGACCUCAGGCCCGAAGCGUGGCGGCACCUGCCGCCGGUGGUAAAAAAGAUCGGAAGAGCACACGUCU [U8C U10C U11G C12U C13G] | 1.28 |
| GGGUCGUCGCGUUAUAAUCGCGUGGAUAUGGCACGCAAGUUUCUACCGGGCACCGUAAAUGUCCGACUGGAGCCGUUCGGGCGGCUAUAAACAGACCUCAGGCCCGAAGCGUGGCGGCACCUGCCGCCGGUGGUAAAAAAGAUCGGAAGAGCACACGUCU [U8C U10C U11G C12U C13U] | 1.46 |
| GGGUCGUCGCGCUAUAAUCGCGUGGAUAUGGCACGCAAGUUUCUACCGGGCACCGUAAAUGUCCGACUGGAGCCGUUCGGGCGGCUAUAAACAGACCUCAGGCCCGAAGCGUGGCGGCACCUGCCGCCGGUGGUAAAAAAGAUCGGAAGAGCACACGUCU [U8C U10C U11G C13U] | 1.28 |
| GGGUCGUCGCGCAAUAAUCGCGUGGAUAUGGCACGCAAGUUUCUACCGGGCACCGUAAAUGUCCGACUGGAGCCGUUCGGGCGGCUAUAAACAGACCUCAGGCCCGAAGCGUGGCGGCACCUGCCGCCGGUGGUAAAAAAGAUCGGAAGAGCACACGUCU [U8C U10C U11G C13A] | 1.26 |
| GGGUCGUCGCGCGAUAAUCGCGUGGAUAUGGCACGCAAGUUUCUACCGGGCACCGUAAAUGUCCGACUGGAGCCGUUCGGGCGGCUAUAAACAGACCUCAGGCCCGAAGCGUGGCGGCACCUGCCGCCGGUGGUAAAAAAGAUCGGAAGAGCACACGUCU [U8C U10C U11G C13G] | 1.14 |
| GGGUCGUCGGAACAUAAUCGCGUGGAUAUGGCACGCAAGUUUCUACCGGGCACCGUAAAUGUCCGACUGGAGCCGUUCGGGCGGCUAUAAACAGACCUCAGGCCCGAAGCGUGGCGGCACCUGCCGCCGGUGGUAAAAAAGAUCGGAAGAGCACACGUCU [U8C U10G U11A C12A] | 1.32 |
| GGGUCGUCGCGGGAUAAUCGCGUGGAUAUGGCACGCAAGUUUCUACCGGGCACCGUAAAUGUCCGACUGGAGCCGUUCGGGCGGCUAUAAACAGACCUCAGGCCCGAAGCGUGGCGGCACCUGCCGCCGGUGGUAAAAAAGAUCGGAAGAGCACACGUCU [U8C U10C U11G C12G C13G] | 1.15 |
| GGGUCGUCGCGGAAUAAUCGCGUGGAUAUGGCACGCAAGUUUCUACCGGGCACCGUAAAUGUCCGACUGGAGCCGUUCGGGCGGCUAUAAACAGACCUCAGGCCCGAAGCGUGGCGGCACCUGCCGCCGGUGGUAAAAAAGAUCGGAAGAGCACACGUCU [U8C U10C U11G C12G C13A] | 1.25 |
| GGGUCGUCGCGGUAUAAUCGCGUGGAUAUGGCACGCAAGUUUCUACCGGGCACCGUAAAUGUCCGACUGGAGCCGUUCGGGCGGCUAUAAACAGACCUCAGGCCCGAAGCGUGGCGGCACCUGCCGCCGGUGGUAAAAAAGAUCGGAAGAGCACACGUCU [U8C U10C U11G C12G C13U] | 1.08 |
| GGGUCGUCGGUCGAUAAUCGCGUGGAUAUGGCACGCAAGUUUCUACCGGGCACCGUAAAUGUCCGACUGGAGCCGUUCGGGCGGCUAUAAACAGACCUCAGGCCCGAAGCGUGGCGGCACCUGCCGCCGGUGGUAAAAAAGAUCGGAAGAGCACACGUCU [U8C U10G C13G] | 1.15 |

| Variant | aptazyme ON/OFF ratio |
| --- | --- |
| GGGUCGUCGGUCUAUAAUCGCGUGGAUAUGGCACGCAAGUUUCUACCGGGCACCGUAAAUGUCCGACUGGAGCCGUUCGGGCGGCUAUAAACAGACCUCAGGCCCGAAGCGUGGCGGCACCUGCCGCCGGUGGUAAAAAAGAUCGGAAGAGCACACGUCU [U8C U10G C13U] | 1.37 |
| GGGUCGUCGGUCAAUAAUCGCGUGGAUAUGGCACGCAAGUUUCUACCGGGCACCGUAAAUGUCCGACUGGAGCCGUUCGGGCGGCUAUAAACAGACCUCAGGCCCGAAGCGUGGCGGCACCUGCCGCCGGUGGUAAAAAAGAUCGGAAGAGCACACGUCU [U8C U10G C13A] | 1.27 |
| GGGUCGUCGGUUCAUAAUCGCGUGGAUAUGGCACGCAAGUUUCUACCGGGCACCGUAAAUGUCCGACUGGAGCCGUUCGGGCGGCUAUAAACAGACCUCAGGCCCGAAGCGUGGCGGCACCUGCCGCCGGUGGUAAAAAAGAUCGGAAGAGCACACGUCU [U8C U10G C12U] | 1.36 |
| GGGUCGUCGGUACAUAAUCGCGUGGAUAUGGCACGCAAGUUUCUACCGGGCACCGUAAAUGUCCGACUGGAGCCGUUCGGGCGGCUAUAAACAGACCUCAGGCCCGAAGCGUGGCGGCACCUGCCGCCGGUGGUAAAAAAGAUCGGAAGAGCACACGUCU [U8C U10G C12A] | 1.12 |
| GGGUCGUCGGUGCAUAAUCGCGUGGAUAUGGCACGCAAGUUUCUACCGGGCACCGUAAAUGUCCGACUGGAGCCGUUCGGGCGGCUAUAAACAGACCUCAGGCCCGAAGCGUGGCGGCACCUGCCGCCGGUGGUAAAAAAGAUCGGAAGAGCACACGUCU [U8C U10G C12G] | 1.07 |
| GGGUCGUCGCGAAAUAAUCGCGUGGAUAUGGCACGCAAGUUUCUACCGGGCACCGUAAAUGUCCGACUGGAGCCGUUCGGGCGGCUAUAAACAGACCUCAGGCCCGAAGCGUGGCGGCACCUGCCGCCGGUGGUAAAAAAGAUCGGAAGAGCACACGUCU [U8C U10C U11G C12A C13A] | 1.17 |
| GGGUCGUCGCGAUAUAAUCGCGUGGAUAUGGCACGCAAGUUUCUACCGGGCACCGUAAAUGUCCGACUGGAGCCGUUCGGGCGGCUAUAAACAGACCUCAGGCCCGAAGCGUGGCGGCACCUGCCGCCGGUGGUAAAAAAGAUCGGAAGAGCACACGUCU [U8C U10C U11G C12A C13U] | 1.33 |
| GGGUCGUCGCGAGAUAAUCGCGUGGAUAUGGCACGCAAGUUUCUACCGGGCACCGUAAAUGUCCGACUGGAGCCGUUCGGGCGGCUAUAAACAGACCUCAGGCCCGAAGCGUGGCGGCACCUGCCGCCGGUGGUAAAAAAGAUCGGAAGAGCACACGUCU [U8C U10C U11G C12A C13G] | 1.21 |
| GGGUCGUCGGUAAAUAAUCGCGUGGAUAUGGCACGCAAGUUUCUACCGGGCACCGUAAAUGUCCGACUGGAGCCGUUCGGGCGGCUAUAAACAGACCUCAGGCCCGAAGCGUGGCGGCACCUGCCGCCGGUGGUAAAAAAGAUCGGAAGAGCACACGUCU [U8C U10G C12A C13A] | 1.11 |
| GGGUCGUCGGUAUAUAAUCGCGUGGAUAUGGCACGCAAGUUUCUACCGGGCACCGUAAAUGUCCGACUGGAGCCGUUCGGGCGGCUAUAAACAGACCUCAGGCCCGAAGCGUGGCGGCACCUGCCGCCGGUGGUAAAAAAGAUCGGAAGAGCACACGUCU [U8C U10G C12A C13U] | 1.11 |
| GGGUCGUCGGUAGAUAAUCGCGUGGAUAUGGCACGCAAGUUUCUACCGGGCACCGUAAAUGUCCGACUGGAGCCGUUCGGGCGGCUAUAAACAGACCUCAGGCCCGAAGCGUGGCGGCACCUGCCGCCGGUGGUAAAAAAGAUCGGAAGAGCACACGUCU [U8C U10G C12A C13G] | 1.11 |
| GGGUCGUCGGUUAAUAAUCGCGUGGAUAUGGCACGCAAGUUUCUACCGGGCACCGUAAAUGUCCGACUGGAGCCGUUCGGGCGGCUAUAAACAGACCUCAGGCCCGAAGCGUGGCGGCACCUGCCGCCGGUGGUAAAAAAGAUCGGAAGAGCACACGUCU [U8C U10G C12U C13A] | 1.21 |
| GGGUCGUCGGUUGAUAAUCGCGUGGAUAUGGCACGCAAGUUUCUACCGGGCACCGUAAAUGUCCGACUGGAGCCGUUCGGGCGGCUAUAAACAGACCUCAGGCCCGAAGCGUGGCGGCACCUGCCGCCGGUGGUAAAAAAGAUCGGAAGAGCACACGUCU [U8C U10G C12U C13G] | 1.11 |
| GGGUCGUCGGUUUAUAAUCGCGUGGAUAUGGCACGCAAGUUUCUACCGGGCACCGUAAAUGUCCGACUGGAGCCGUUCGGGCGGCUAUAAACAGACCUCAGGCCCGAAGCGUGGCGGCACCUGCCGCCGGUGGUAAAAAAGAUCGGAAGAGCACACGUCU [U8C U10G C12U C13U] | 1.2 |
| GGGUCGUCGGUGAAUAAUCGCGUGGAUAUGGCACGCAAGUUUCUACCGGGCACCGUAAAUGUCCGACUGGAGCCGUUCGGGCGGCUAUAAACAGACCUCAGGCCCGAAGCGUGGCGGCACCUGCCGCCGGUGGUAAAAAAGAUCGGAAGAGCACACGUCU [U8C U10G C12G C13A] | 1.09 |
| GGGUCGUCGGUGUAUAAUCGCGUGGAUAUGGCACGCAAGUUUCUACCGGGCACCGUAAAUGUCCGACUGGAGCCGUUCGGGCGGCUAUAAACAGACCUCAGGCCCGAAGCGUGGCGGCACCUGCCGCCGGUGGUAAAAAAGAUCGGAAGAGCACACGUCU [U8C U10G C12G C13U] | 1.12 |
| GGGUCGUCGGUGGAUAAUCGCGUGGAUAUGGCACGCAAGUUUCUACCGGGCACCGUAAAUGUCCGACUGGAGCCGUUCGGGCGGCUAUAAACAGACCUCAGGCCCGAAGCGUGGCGGCACCUGCCGCCGGUGGUAAAAAAGAUCGGAAGAGCACACGUCU [U8C U10G C12G C13G] | 1.12 |
| GGGUCGUCGGACCAUAAUCGCGUGGAUAUGGCACGCAAGUUUCUACCGGGCACCGUAAAUGUCCGACUGGAGCCGUUCGGGCGGCUAUAAACAGACCUCAGGCCCGAAGCGUGGCGGCACCUGCCGCCGGUGGUAAAAAAGAUCGGAAGAGCACACGUCU [U8C U10G U11A] | 1.07 |
